# Source: US20250011471A1 (published 2025)
# T1: mouse KLB (mouse, UniProt Q99N32 53-990)
# T1 construct: KLB cDNA in pRK vector, transiently expressed on HEK293T cells for FACS
# T1 sequence: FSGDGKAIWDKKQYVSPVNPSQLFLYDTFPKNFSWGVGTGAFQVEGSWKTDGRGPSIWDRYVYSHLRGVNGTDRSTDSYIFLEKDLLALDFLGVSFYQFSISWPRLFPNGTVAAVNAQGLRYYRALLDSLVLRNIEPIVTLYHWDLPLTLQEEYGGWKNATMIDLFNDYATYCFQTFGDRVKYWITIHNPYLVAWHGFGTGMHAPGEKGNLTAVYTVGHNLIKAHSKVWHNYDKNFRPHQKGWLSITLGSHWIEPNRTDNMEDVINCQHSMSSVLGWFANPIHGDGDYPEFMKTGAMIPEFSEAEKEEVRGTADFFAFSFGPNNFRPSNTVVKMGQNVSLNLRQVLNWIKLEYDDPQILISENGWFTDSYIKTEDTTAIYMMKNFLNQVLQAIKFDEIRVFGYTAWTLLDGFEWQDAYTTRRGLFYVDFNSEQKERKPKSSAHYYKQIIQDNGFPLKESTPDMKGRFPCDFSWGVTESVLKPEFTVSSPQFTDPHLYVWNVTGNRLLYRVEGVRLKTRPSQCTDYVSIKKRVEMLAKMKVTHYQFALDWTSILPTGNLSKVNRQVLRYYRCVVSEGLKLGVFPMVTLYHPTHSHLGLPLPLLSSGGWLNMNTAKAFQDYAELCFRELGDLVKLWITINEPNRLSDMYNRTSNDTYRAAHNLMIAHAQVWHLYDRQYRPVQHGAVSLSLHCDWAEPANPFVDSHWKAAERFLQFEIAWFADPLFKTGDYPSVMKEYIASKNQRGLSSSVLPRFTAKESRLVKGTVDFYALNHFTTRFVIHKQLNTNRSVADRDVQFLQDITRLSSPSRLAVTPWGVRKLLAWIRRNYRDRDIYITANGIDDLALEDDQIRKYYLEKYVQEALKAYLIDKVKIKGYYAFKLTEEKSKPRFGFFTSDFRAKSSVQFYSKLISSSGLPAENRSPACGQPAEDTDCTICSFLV
# What was measured:
# [1] = target: T2, human KLB/human FGFR1c complex on HEK293 cells (human, UniProt Q86Z14 53-1044; P11362 22-822); test: cell-based or functional assay
# human FGFR1c on cells [2] = target: T3, human FGFR1c on cells (human, UniProt P11362 22-822); test: radiolabel ligand assay on cells expressing only FGFR1c; could not be determined reliably
# T3 construct: HEK293 cells expressing FGFR1c without KLB; also called hFGFR1c
# T3 sequence (P11362 other isoform, or with tags, fused parts or gaps limits assumed): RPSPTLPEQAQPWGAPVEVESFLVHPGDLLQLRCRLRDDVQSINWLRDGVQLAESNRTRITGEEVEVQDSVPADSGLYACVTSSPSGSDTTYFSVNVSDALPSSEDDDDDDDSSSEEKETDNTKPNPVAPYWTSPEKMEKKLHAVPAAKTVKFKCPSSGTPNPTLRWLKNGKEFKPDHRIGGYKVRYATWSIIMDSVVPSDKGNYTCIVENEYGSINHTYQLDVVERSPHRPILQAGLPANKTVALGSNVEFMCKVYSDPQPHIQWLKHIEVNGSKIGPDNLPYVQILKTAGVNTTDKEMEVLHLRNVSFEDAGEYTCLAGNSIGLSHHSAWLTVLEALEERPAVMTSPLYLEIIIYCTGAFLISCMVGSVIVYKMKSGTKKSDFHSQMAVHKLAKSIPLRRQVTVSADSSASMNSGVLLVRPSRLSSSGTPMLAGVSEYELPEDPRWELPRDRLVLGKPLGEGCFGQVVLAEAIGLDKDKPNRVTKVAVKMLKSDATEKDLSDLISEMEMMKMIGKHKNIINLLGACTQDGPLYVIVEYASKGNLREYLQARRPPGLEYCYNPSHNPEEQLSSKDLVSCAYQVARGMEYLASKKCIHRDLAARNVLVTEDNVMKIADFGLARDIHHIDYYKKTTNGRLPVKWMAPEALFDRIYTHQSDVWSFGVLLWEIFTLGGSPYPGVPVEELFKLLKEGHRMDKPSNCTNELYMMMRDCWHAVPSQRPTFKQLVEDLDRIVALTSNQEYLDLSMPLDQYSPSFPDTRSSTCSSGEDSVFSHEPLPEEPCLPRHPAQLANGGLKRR
# human FGFR1c on cells [3] = target: T3, human FGFR1c on cells; test: radiolabeled ligand cell binding assay on stable HEK293 cells, iodinated against unlabeled protein
# human KLB on cells = target: T4, human KLB on cells (human, UniProt Q86Z14 53-1044); test: as above
# T4 construct: also called hKLB; beta-Klotho
# mouse KLB = target: T1, mouse KLB; test: as above
# [4] = target: T2, human KLB/human FGFR1c complex on …; test: as above
EC50 in GAL-ELK1 assay in HEK293 cells [1] [nM],Kd (human FGFR1c on cells [2]) [nM],Kd (human FGFR1c on cells [3]) [nM],Kd (human KLB on cells) [nM],Kd (mouse KLB) [nM],Kd [4] [nM],Binder
3.2,> 300,300,6.6,15.5,2.3,BsAb10 (bispecific antibody) chain 1: EVQLVESGGGLVQPGGSLRLSCAASGFTFTSNWISWVRQAPGKGLEWVAEIDPYDGATDYADSVKGRFTISADTSKNTAYLQMNSLRAEDTAVYYCATGTDVMDYWGQGTLVTVSS chain 2: DIQMTQSPSSLSASVGDRVTITCRASQDVSTAVAWYQQKPGKAPKLLIYSASFLYSGVPSRFSGSGSGTDFTLTISSLQPEDFATYYCQQSYTTPPTFGQGTKVEIK chain 3: QVQLKQSGPGLVQPSQSLSVACTVSDFSLTTYGVHWVRQSPGKGLEWLGVIWSGGSTDYNAAFISRLTISKDNSKSQVFFKMNSLQTTDTAIYYCARDYGSTYVDAIDYWGQGTSVTVSS chain 4: DIVLTQSPTSLAVSLGQRATISCRASESVESYGNRYMTWYQQKPGQPPKLLIYRAANLQSGIPARFSGSGSRTDFTLTIDPVEADDVATYYCQQSNEDPWTFGGGTKVEIK
,,300,9.8,,2.2,BsAb9 (bispecific antibody) chain 1: EVQLVESGGGLVQPGGSLRLSCAASGFTFTSNWISWVRQAPGKGLEWVAEIDPYDGATDYADSVKGRFTISADTSKNTAYLQMNSLRAEDTAVYYCATGTDVMDYWGQGTLVTVSS chain 2: DIQMTQSPSSLSASVGDRVTITCRASQDVSTAVAWYQQKPGKAPKLLIYSASFLYSGVPSRFSGSGSGTDFTLTISSLQPEDFATYYCQQSYTTPPTFGQGTKVEIK chain 3: EVKFLESGGGLVQPGGSLRLSCAVSGIDFSRYWMSWVRQAPGKGLEWIGEISPDSSTINYTPSLKDKFVISRDNAKNTLYLQMSKVRSADTALYYCARPSPALDYWGQGTLVTVSA chain 4: DIVMTQSPATLSVTPGDRVSLSCRASQSISDYVYWYQQKSHESPRLLIIYASQSISGIPSRFSGSGSGSDFTLSINSVEPEDVGVYYCQNGHNFPYTFGGGTKLEIK
